Assay results: patent US20230287120A1 (ALLOGENE THERAPEUTICS, published 2023)

T1: Flag tagged recombinant DLL3 (Adipogen) (Homo sapiens (Human), UniProt Q9NYJ7 27-492)
T1 construct: Bought reagent; also called Flag-DLL3
T1 sequence: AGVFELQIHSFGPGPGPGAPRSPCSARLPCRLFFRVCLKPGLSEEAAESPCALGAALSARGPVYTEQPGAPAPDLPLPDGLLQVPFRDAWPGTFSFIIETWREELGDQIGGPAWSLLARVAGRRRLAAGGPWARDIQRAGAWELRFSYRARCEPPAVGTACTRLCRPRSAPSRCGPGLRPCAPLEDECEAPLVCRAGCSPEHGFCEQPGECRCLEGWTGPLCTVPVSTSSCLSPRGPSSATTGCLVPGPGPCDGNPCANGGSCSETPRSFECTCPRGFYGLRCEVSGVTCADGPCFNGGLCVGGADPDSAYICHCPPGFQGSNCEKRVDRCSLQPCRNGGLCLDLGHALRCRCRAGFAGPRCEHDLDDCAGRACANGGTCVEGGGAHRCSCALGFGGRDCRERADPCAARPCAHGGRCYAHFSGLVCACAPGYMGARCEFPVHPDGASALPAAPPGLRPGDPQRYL


Assays:
[1] = biological target: T1, Flag tagged recombinant DLL3 (Adipogen); assay: flow cytometry, percent of T cells that recognise recombinant DLL3, Donor 503
Experimental: (§1) To determine the percentage of T cells that were successfully transduced with DLL3 CAR, T cells were first incubated with 1 ug/ml Flag tagged recombinant DLL3 (Adipogen) in PBS+1% BSA for 20 minutes at 4 C.

[2] = biological target: T1, Flag tagged recombinant DLL3 (Adipogen); assay: flow cytometry, percent of T cells that recognise recombinant DLL3, Donor 772
Experimental: as §1

Binder | Transduction efficiency [1] [%] | Transduction efficiency [2] [%]
3G6 - L1 (other, also called anti-DLL3 CAR with 3G6-L1 scFv, on primary T cells) CAR: QVPLVQSGAEVKKPGSSVKVSCKASGGTFSTYSISWVRQAPGQGLEWMGGIIPIFGTTNYAQKFQGRVTITADKSTSTAYMELSSLRSEDTAVYYCARDGEGSYYYYYGMDVWGQGTTVTVSSGGGGSGGGGSGGGGSGGGGSQSVLTQPPSVSAAPGQKVTISCSGSSSNIGNNYVSWYQQLPGTAPKLLIYDNNKRPSGIPDRFFGSKFGTSATLGITGLQTGDEADYYCGTWDSSLSAVVFGGGTKLTVLTTTPAPRPPTPAPTIASQPLSLRPEACRPAAGGAVHTRGLDFACDIYIWAPLAGTCGVLLLSLVITKRGRKKLLYIFKQPFMRPVQTTQEEDGCSCRFPEEEEGGCELRVKFSRSADAPAYQQGQNQLYNELNLGRREEYDVLDKRRGRDPEMGGKPRRKNPQEGLYNELQKDKMAEAYSEIGMKGERRRGKGHDGLYQGLSTATKDTYDALHMQALPPR | 35 | 14.2
4C6 (other, also called anti-DLL3 CAR with 4C6 scFv, on primary T cells) CAR: QVQLQESGPGLVKPSETLSLTCTVSGDSISSYYWSWIRQPPGKGLEWIGYMYYSGITNYNPSLKSRVNISLDTSKNQFSLKLGSVTAADTAVYYCARLSVAGFYFDYWGQGTLVTVSSGGGGSGGGGSGGGGSGGGGSEIVLTQSPGTLSLSPGERATLSCRASQSVTRSYLAWYQQKPGQAPRLLIYGASSRATDIPDRFSGSGSGTDFTLTINRLEPEDFAVYYCQQYGTSPLTFGGGTKVEIKTTTPAPRPPTPAPTIASQPLSLRPEACRPAAGGAVHTRGLDFACDIYIWAPLAGTCGVLLLSLVITKRGRKKLLYIFKQPFMRPVQTTQEEDGCSCRFPEEEEGGCELRVKFSRSADAPAYQQGQNQLYNELNLGRREEYDVLDKRRGRDPEMGGKPRRKNPQEGLYNELQKDKMAEAYSEIGMKGERRRGKGHDGLYQGLSTATKDTYDALHMQALPPR | 56.9 | 25.2
3C3 (other, also called anti-DLL3 CAR with 3C3 scFv, on primary T cells) CAR: QVQLVQSGAEVKRPGASVKVSCKASGYTFTSYYIHWVRQAPGQGLEWMGVIVPSGGSISYAQKFQGRVTMTRDTSTNIVYMELSSLRSEDTAVYYCARDRYYGDYYYGLDVWGQGTTVTVSSGGGGSGGGGSGGGGSGGGGSDIQMTQSPSSLSASVGDRVTITCRASQGINNFLAWFQQKPGKAPKSLIYAASSLQSGVPSKFSGSGSGTDFTLTIRSLQPEDFATYYCQHYNSYPITFGQGTRLEIKTTTPAPRPPTPAPTIASQPLSLRPEACRPAAGGAVHTRGLDFACDIYIWAPLAGTCGVLLLSLVITKRGRKKLLYIFKQPFMRPVQTTQEEDGCSCRFPEEEEGGCELRVKFSRSADAPAYQQGQNQLYNELNLGRREEYDVLDKRRGRDPEMGGKPRRKNPQEGLYNELQKDKMAEAYSEIGMKGERRRGKGHDGLYQGLSTATKDTYDALHMQALPPR |  | 0.14
3G6 - L2 (other, also called anti-DLL3 CAR with 3G6-L2 scFv, on primary T cells) CAR: QVPLVQSGAEVKKPGSSVKVSCKASGGTFSTYSISWVRQAPGQGLEWMGGIIPIFGTTNYAQKFQGRVTITADKSTSTAYMELSSLRSEDTAVYYCARDGEGSYYYYYGMDVWGQGTTVTVSSGGGGSGGGGSGGGGSGGGGSQSVLTQPPSASGTPGQRVTISCSGSSSNIGSNYVYWYQQLPGTAPKLLIYSNNQRPSGVPDRFSGSKSGTSASLAISGLRSEDEADYYCAAWDDSLSGWVFGGGTKLTVLTTTPAPRPPTPAPTIASQPLSLRPEACRPAAGGAVHTRGLDFACDIYIWAPLAGTCGVLLLSLVITKRGRKKLLYIFKQPFMRPVQTTQEEDGCSCRFPEEEEGGCELRVKFSRSADAPAYQQGQNQLYNELNLGRREEYDVLDKRRGRDPEMGGKPRRKNPQEGLYNELQKDKMAEAYSEIGMKGERRRGKGHDGLYQGLSTATKDTYDALHMQALPPR | 33.5 | 16.9
3E10 (other, also called anti-DLL3 CAR with 3E10 scFv, on primary T cells) CAR: QVQLQESGPGLVKPSETLSLTCNVSDGSISSYYWTWIRQPPGKGLDWIGYIFYSGTTNYNPSLKSRVTISLDTSKNQFSLKLTSMTAADTAVYYCARISEKSFYFDYWGQGTLVTVSSGGGGSGGGGSGGGGSGGGGSQSVLTQPPSASGTPGQRVTISCSGSSSNIGSNYVYWYQQLPGTAPKLLIYSNNQRPSGVPDRFSGSKSGTSASLAISGLRSEDEADYYCAPWDDSLSGRVFGGGTKLTVLTTTPAPRPPTPAPTIASQPLSLRPEACRPAAGGAVHTRGLDFACDIYIWAPLAGTCGVLLLSLVITKRGRKKLLYIFKQPFMRPVQTTQEEDGCSCRFPEEEEGGCELRVKFSRSADAPAYQQGQNQLYNELNLGRREEYDVLDKRRGRDPEMGGKPRRKNPQEGLYNELQKDKMAEAYSEIGMKGERRRGKGHDGLYQGLSTATKDTYDALHMQALPPR |  | 0.43
3F9-L (other, also called anti-DLL3 CAR with 3F9-L scFv, on primary T cells) CAR: QVQLQQSGPGLVKPSQTLSLACAISGDSVSSNSAIWNWIRQSPSRGLEWLGGTYYRSMWYNDYAVSVKSRITINPDTSKNQLSLQLNSVTPEDTAVYYCSRGGIVGVPDAFDIWGQGTMVTVSSGGGGSGGGGSGGGGSGGGGSQSVLTQPPSASGTPGQRVTISCSGSSSNIGSNTANWYQQLPGTAPRLLIYRNNQRPSGVPDRFSGSKSGTSASLAISGLQSEDEADYYCAAWDDSLNGYVFGTGTKVTVLTTTPAPRPPTPAPTIASQPLSLRPEACRPAAGGAVHTRGLDFACDIYIWAPLAGTCGVLLLSLVITKRGRKKLLYIFKQPFMRPVQTTQEEDGCSCRFPEEEEGGCELRVKFSRSADAPAYQQGQNQLYNELNLGRREEYDVLDKRRGRDPEMGGKPRRKNPQEGLYNELQKDKMAEAYSEIGMKGERRRGKGHDGLYQGLSTATKDTYDALHMQALPPR | 19.5 | 13.8

Further lines, results first:

Transduction efficiency [1] [%] | Transduction efficiency [2] [%] | Binder
58.9 |  | 2404.8E11 (other, also called anti-DLL3 CAR with 2404.8E11 scFv, on primary T cells) CAR: QIQLQQSGPGLVKPSQTLSLTCAISGDSVSSNSAVWNWIRQSPSRGLEWLGRTYYRSKWYNDYAVSVKSRITIKPDTAKNQFSLQLNSVTPEDTAVYYFTRGGIVGAPDAFDIWGQGTMVTVSSGGGGSGGGGSGGGGSGGGGSQSVLTQPPSASGTPGQRVTISCSGSSSNIGSDPINWYQQVPGTAPKLLIYSNNQRPSGVPDRFSGSKSGTSASLAISGLQSEDEADYYCAAWDDSLNGYVFGTGTKVTVLTTTPAPRPPTPAPTIASQPLSLRPEACRPAAGGAVHTRGLDFACDIYIWAPLAGTCGVLLLSLVITKRGRKKLLYIFKQPFMRPVQTTQEEDGCSCRFPEEEEGGCELRVKFSRSADAPAYQQGQNQLYNELNLGRREEYDVLDKRRGRDPEMGGKPRRKNPQEGLYNELQKDKMAEAYSEIGMKGERRRGKGHDGLYQGLSTATKDTYDALHMQALPPR
37.8 | 24.8 | 4E6 (other, also called anti-DLL3 CAR with 4E6 scFv, on primary T cells) CAR: QVQLQESGPGLVKPSETLSLTCTVSSDSISSYYWSWIRQPPGKGLEWISYIYYSGISNYNPSLKSRVSISVDTSKNQFSLRLSSVTAADTAVYYCARISVAGFFFDNWGQGTLVTVSSGGGGSGGGGSGGGGSGGGGSEIMLTQSPDTLSLSPGERATLSCRASQSVSSSYLAWYQQKPGQAPRLLIYGASSRAAGVPDRFSGSGSGTDFTLTISRLAPEDFVVYYCQQYGISPLTFGGGTKVEIKTTTPAPRPPTPAPTIASQPLSLRPEACRPAAGGAVHTRGLDFACDIYIWAPLAGTCGVLLLSLVITKRGRKKLLYIFKQPFMRPVQTTQEEDGCSCRFPEEEEGGCELRVKFSRSADAPAYQQGQNQLYNELNLGRREEYDVLDKRRGRDPEMGGKPRRKNPQEGLYNELQKDKMAEAYSEIGMKGERRRGKGHDGLYQGLSTATKDTYDALHMQALPPR
59.4 | 26.7 | 6F8 (other, also called anti-DLL3 CAR with 6F8 scFv, on primary T cells) CAR: QVQLVQSGAEVKKPGSSVKVSCKASGGTFTNYCISWVRQAPGQGLEWMGGIIPIFGTTNYAQTFQGRVTITADKSTSTAYMELSSLRSEDTAVYYCARDNGDRYYYDMDVWGQGTTVTVSSGGGGSGGGGSGGGGSGGGGSQSVLTQPPSVSAAPGQKVTISCSGSSSNIGNNYVSWYQQLPGTAPKLLIYDNNKRPSGIPDRFSGSKSGTSATLGITGLQTGDEADYYCGTWDSSLSAVVFGGGTKLTVLTTTPAPRPPTPAPTIASQPLSLRPEACRPAAGGAVHTRGLDFACDIYIWAPLAGTCGVLLLSLVITKRGRKKLLYIFKQPFMRPVQTTQEEDGCSCRFPEEEEGGCELRVKFSRSADAPAYQQGQNQLYNELNLGRREEYDVLDKRRGRDPEMGGKPRRKNPQEGLYNELQKDKMAEAYSEIGMKGERRRGKGHDGLYQGLSTATKDTYDALHMQALPPR
 | 0.98 | 10E12 (other, also called anti-DLL3 CAR with 10E12 scFv, on primary T cells) CAR: QVQLQESGPGLVKPSETLSLTCTVSGVSISSYYWSWIRQPPGKGLEWIAYIYYSGNTNYSPSLKSRVTISVDTSKDQLSLKLSSVTAADTAVYYCTRGGSGTIDVFDIWGQGTMVAVSSGGGGSGGGGSGGGGSGGGGSQSVLTQPPSVSAAPGQKVTISCSGSSSNIGNNYVSWYQQLPGTAPKLLIYDNNKRPSGIPDRFSGSKSGTSATLGITGLQTGDEADYYCETWDSSLSAVVFGGGTKLTVLTTTPAPRPPTPAPTIASQPLSLRPEACRPAAGGAVHTRGLDFACDIYIWAPLAGTCGVLLLSLVITKRGRKKLLYIFKQPFMRPVQTTQEEDGCSCRFPEEEEGGCELRVKFSRSADAPAYQQGQNQLYNELNLGRREEYDVLDKRRGRDPEMGGKPRRKNPQEGLYNELQKDKMAEAYSEIGMKGERRRGKGHDGLYQGLSTATKDTYDALHMQALPPR
 | 0.43 | 11F4 (other, also called anti-DLL3 CAR with 11F4 scFv, on primary T cells) CAR: QVHLQESGPGLVKPSETLSLTCTVSGGSISHYYWTWIRQPPGKGLEWIGYIYYSGITNFSPSLKSRVSISVDSSKNQFSLNLNSVTAADTAVYYCAGISLAGFYFDYWVQGTLVTVSSGGGGSGGGGSGGGGSGGGGSEIVLTQSPGTLSLSPGERATLSCRASQSVSRSYLAWYQQKPGQAPRLLIYGASSRATGVPDRFSGSGSGTDFTLTISRLEPEDFAVFYCQQYSISPLTFGGGTKVEIKTTTPAPRPPTPAPTIASQPLSLRPEACRPAAGGAVHTRGLDFACDIYIWAPLAGTCGVLLLSLVITKRGRKKLLYIFKQPFMRPVQTTQEEDGCSCRFPEEEEGGCELRVKFSRSADAPAYQQGQNQLYNELNLGRREEYDVLDKRRGRDPEMGGKPRRKNPQEGLYNELQKDKMAEAYSEIGMKGERRRGKGHDGLYQGLSTATKDTYDALHMQALPPR
